Results as given in the supplement of paper PMC10567573.

B1: KLHL14 (parent)
chain: YVIGGRNETGYLSSVECYNLETNE

Variants of: B1
Test: protein stability index of a GFP-peptide fusion (GPS, HEK-293T) (PSI 1-6); higher = more stable
Settings: c terminus: a fixed tail appended
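Also: lentivirally expressed fusions sorted by FACS into six bins by GFP to DsRed ratio, PSI derived from sequencing read proportions per bin multiplied by bin number.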

First: YVIGGRNATGYLSSVECYNLETNE
Second: YVIGGRNWTGYLSSVECYNLETNE
The protein stability index of the first is lower: 1.45 for the first, 2.08 for the second.

Compared with YVIGGRNHTGYLSSVECYNLETNE, YVIGGRNSTGYLSSVECYNLETNE is higher in protein stability index: 2.02 for the first, 2.09 for the second.

Compared with YVIGGRNQTGYLSSVECYNLETNE, YVIGGRNTTGYLSSVECYNLETNE is lower in protein stability index: 1.88 for the first, 1.78 for the second.

Going from YVIGGRNMTGYLSSVECYNLETNE to YVIGGRNPTGYLSSVECYNLETNE, the protein stability index falls from 2.21 to 1.16.

First: YVIGGRNFTGYLSSVECYNLETNE
Second: YVIGGRNGTGYLSSVECYNLETNE
The protein stability index of the first is lower: 1.99 for the first, 2.44 for the second.

Compared with YVIGGRNDTGYLSSVECYNLETNE, YVIGGRNKTGYLSSVECYNLETNE is higher in protein stability index: 1.56 for the first, 1.89 for the second.

Compared with YVIGGRNITGYLSSVECYNLETNE, YVIGGRNVTGYLSSVECYNLETNE is lower in protein stability index: 1.81 for the first, 1.78 for the second.

Compared with YVIGGRNRTGYLSSVECYNLETNE, YVIGGRNNTGYLSSVECYNLETNE is lower in protein stability index: 1.95 for the first, 1.8 for the second.

Going from YVIGGRNLTGYLSSVECYNLETNE to YVIGGRNYTGYLSSVECYNLETNE, the protein stability index rises from 1.32 to 1.84.

First: YVIGGRNETGPLSSVECYNLETNE
Second: YVIGGRNETGHLSSVECYNLETNE
The protein stability index of the first is higher: 3.71 for the first, 2.45 for the second.

First: YVIGGRNETGFLSSVECYNLETNE
Second: YVIGGRNETGLLSSVECYNLETNE
The protein stability index of the first is lower: 1.83 for the first, 2.2 for the second.

First: YVIGGRNETGDLSSVECYNLETNE
Second: YVIGGRNETGRLSSVECYNLETNE
The protein stability index of the first is higher: 3.65 for the first, 2.13 for the second.

First: YVIGGRNETGNLSSVECYNLETNE
Second: YVIGGRNETGKLSSVECYNLETNE
The protein stability index of the first is lower: 2.83 for the first, 2.86 for the second.

Going from YVIGGRNETGILSSVECYNLETNE to YVIGGRNETGALSSVECYNLETNE, the protein stability index rises from 2.1 to 2.71.

Compared with YVIGGRNETGSLSSVECYNLETNE, YVIGGRNETGVLSSVECYNLETNE is higher in protein stability index: 2.42 for the first, 2.52 for the second.

First: YVIGGRNETGGLSSVECYNLETNE
Second: YVIGGRNETGCLSSVECYNLETNE
The protein stability index of the first is higher: 2.85 for the first, 2.45 for the second.

Going from YVIGGRNETGMLSSVECYNLETNE to YVIGGRNETGTLSSVECYNLETNE, the protein stability index rises from 1.96 to 2.75.

First: YVIGGRNETGELSSVECYNLETNE
Second: YVIGGRNETGQLSSVECYNLETNE
The protein stability index of the first is higher: 3.9 for the first, 3.1 for the second.

First: YVIGGYNETGYLSSVECYNLETNE
Second: YVIGGRNEFGYLSSVECYNLETNE
The protein stability index of the first is lower: 1.69 for the first, 2.21 for the second.

First: YVIGGRNERGYLSSVECYNLETNE
Second: YVIGGRNENGYLSSVECYNLETNE
The protein stability index of the first is higher: 2.76 for the first, 1.83 for the second.

Going from YVIGGRNEAGYLSSVECYNLETNE to YVIGGRNECGYLSSVECYNLETNE, the protein stability index falls from 1.9 to 1.73.

Going from YVIGGRNEWGYLSSVECYNLETNE to YVIGGRNEVGYLSSVECYNLETNE, the protein stability index rises from 1.78 to 2.07.

First: YVIGGRNEYGYLSSVECYNLETNE
Second: YVIGGRNEGGYLSSVECYNLETNE
The protein stability index of the first is lower: 1.58 for the first, 1.69 for the second.

Compared with YVIGGRNESGYLSSVECYNLETNE, YVIGGRNEMGYLSSVECYNLETNE is higher in protein stability index: 1.93 for the first, 2.37 for the second.

Compared with YVIGGRNEKGYLSSVECYNLETNE, YVIGGRNEIGYLSSVECYNLETNE is lower in protein stability index: 2.13 for the first, 1.49 for the second.

First: YVIGGRNEQGYLSSVECYNLETNE
Second: YVIGGRNELGYLSSVECYNLETNE
The protein stability index of the first is higher: 2 for the first, 1.69 for the second.

First: YVIGGRNEEGYLSSVECYNLETNE
Second: YVIGGRNEPGYLSSVECYNLETNE
The protein stability index of the first is higher: 2.67 for the first, 1.9 for the second.

Compared with YVIGGRNEDGYLSSVECYNLETNE, YVIGGRNEHGYLSSVECYNLETNE is lower in protein stability index: 2.23 for the first, 1.6 for the second.

Going from YVIGGRLETGYLSSVECYNLETNE to YVIGGRCETGYLSSVECYNLETNE, the protein stability index falls from 2.36 to 1.7.

Compared with YVIGGRFETGYLSSVECYNLETNE, YVIGGRRETGYLSSVECYNLETNE is higher in protein stability index: 2.29 for the first, 2.38 for the second.

Going from YVIGGREETGYLSSVECYNLETNE to YVIGGRPETGYLSSVECYNLETNE, the protein stability index falls from 2.59 to 1.84.

Compared with YVIGGRAETGYLSSVECYNLETNE, YVIGGRQETGYLSSVECYNLETNE is lower in protein stability index: 2.03 for the first, 1.91 for the second.

First: YVIGGRMETGYLSSVECYNLETNE
Second: YVIGGRWETGYLSSVECYNLETNE
The protein stability index of the first is higher: 1.66 for the first, 1.63 for the second.

Compared with YVIGGRTETGYLSSVECYNLETNE, YVIGGRGETGYLSSVECYNLETNE is higher in protein stability index: 1.85 for the first, 1.99 for the second.

Going from YVIGGRKETGYLSSVECYNLETNE to YVIGGRSETGYLSSVECYNLETNE, the protein stability index rises from 2.27 to 2.63.

First: YVIGGRDETGYLSSVECYNLETNE
Second: YVIGGRHETGYLSSVECYNLETNE
The protein stability index of the first is higher: 2.5 for the first, 2.45 for the second.

Going from YVIGGRYETGYLSSVECYNLETNE to YVIGGRVETGYLSSVECYNLETNE, the protein stability index rises from 1.5 to 1.71.

Going from YVIGGRIETGYLSSVECYNLETNE to YVIGGRNETNYLSSVECYNLETNE, the protein stability index falls from 1.74 to 1.65.

First: YVIGGRNETAYLSSVECYNLETNE
Second: YVIGGRNETLYLSSVECYNLETNE
The protein stability index of the first is lower: 1.88 for the first, 2.62 for the second.

Compared with YVIGGRNETIYLSSVECYNLETNE, YVIGGRNETSYLSSVECYNLETNE is higher in protein stability index: 1.25 for the first, 1.93 for the second.

Compared with YVIGGRNETDYLSSVECYNLETNE, YVIGGRNETEYLSSVECYNLETNE is higher in protein stability index: 3.07 for the first, 3.13 for the second.

Going from YVIGGRNETFYLSSVECYNLETNE to YVIGGRNETVYLSSVECYNLETNE, the protein stability index falls from 2.81 to 1.98.

Going from YVIGGRNETYYLSSVECYNLETNE to YVIGGRNETPYLSSVECYNLETNE, the protein stability index falls from 1.6 to 1.52.

Going from YVIGGRNETQYLSSVECYNLETNE to YVIGGRNETWYLSSVECYNLETNE, the protein stability index falls from 2.29 to 2.21.

Going from YVIGGRNETKYLSSVECYNLETNE to YVIGGRNETRYLSSVECYNLETNE, the protein stability index rises from 2.13 to 2.55.

Going from YVIGGRNETHYLSSVECYNLETNE to YVIGGRNETTYLSSVECYNLETNE, the protein stability index rises from 1.45 to 1.6.

Compared with YVIGGRNETCYLSSVECYNLETNE, YVIGGRNETMYLSSVECYNLETNE is lower in protein stability index: 2.58 for the first, 1.68 for the second.
